The values that follow come from US20170369576A1.

The target in experiment [1] is HIV-1 envelope glycoprotein of isolate 92TH594 (R5/X4), on pseudotype virus (HIV-1 (92TH594)). Kind of experiment: cell-based or functional assay.
For experiment [2], the target named is HIV-1 envelope glycoprotein of isolate HXB2 (X4), on pseudotype virus (HIV-1 (HXB2)) (UniProt P04578). In words: cell-based or functional assay.
Experiment [3] concerns the target HIV-1 envelope glycoprotein of isolate JRCSF (R5), on pseudotype virus (HIV-1 (JRCSF)). Kind of experiment: cell-based or functional assay.
Experiment [4] deals with chimpanzee CD4 on PBMC (chimpanzee) (UniProt P16004). Kind of experiment: FACS of chimp X282 PBMC stained with Leu3a-PE only.
Sequence of chimpanzee CD4 on PBMC (chimpanzee) (P16004 26-458): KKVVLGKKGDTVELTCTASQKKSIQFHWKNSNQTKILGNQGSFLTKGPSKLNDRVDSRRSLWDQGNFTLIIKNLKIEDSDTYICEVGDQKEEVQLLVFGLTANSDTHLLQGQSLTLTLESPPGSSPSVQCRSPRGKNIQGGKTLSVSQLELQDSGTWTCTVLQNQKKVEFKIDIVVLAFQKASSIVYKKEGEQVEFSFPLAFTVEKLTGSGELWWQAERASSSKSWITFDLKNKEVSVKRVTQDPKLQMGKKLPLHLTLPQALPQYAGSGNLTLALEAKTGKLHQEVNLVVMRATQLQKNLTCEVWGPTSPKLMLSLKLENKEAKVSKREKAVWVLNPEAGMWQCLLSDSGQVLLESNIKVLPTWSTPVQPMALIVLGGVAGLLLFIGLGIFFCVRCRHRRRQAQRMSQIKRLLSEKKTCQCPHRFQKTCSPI
The target is the same in experiment [5]. Kind of experiment: FACS of chimp X301 PBMC stained with Leu3a-PE only.
Experiment [6] shares this target. In words: FACS of chimp X282 PBMC, sequential staining: 1st Leu3a binding, 2nd B4 exposure.
For experiment [7] the target is unchanged. In words: FACS of chimp X301 PBMC, sequential staining: 1st Leu3a binding, 2nd B4 exposure.
Experiment [8] has the same target. In words: FACS of chimp X282 PBMC, sequential staining: 1st B4 binding, 2nd Leu3a exposure; competitor B4 prebound.
Experiment [9] has the same target. Kind of experiment: FACS of chimp X301 PBMC, sequential staining: 1st B4 binding, 2nd Leu3a exposure; competitor B4 prebound.

monoclonal neutralizing antibody 2F5 returned an IC50 of HIV entry inhibition, pseudotype virus 92TH594 (R5/X4), U87-CD4+/CCR5+/CXCR4+ cells in [1] of 3 µg/mL. Also, the IC50 of HIV entry inhibition, pseudotype virus HXB2 (X4), U87-CD4+/CCR5+/CXCR4+ cells in experiment [2] is 0.07 µg/mL. The substance also displayed an IC50 of HIV entry inhibition, pseudotype virus JRCSF (R5), U87-CD4+/CCR5+/CXCR4+ cells in [3] of 4 µg/mL.
Take anti-CD4 monoclonal antibody Leu3a: the percent positive PBMC (single label control, Leu3a+) in experiment [4] worked out at 25.5%; in experiment [5], 44%. Moreover, the percent positive PBMC (Leu3a+ B4-) was 0.1% in [6], 0.3% in experiment [7], 0% in experiment [8] and 0% in experiment [9]. Also, the percent positive PBMC (Leu3a+ B4+) worked out at 1.2% in experiment [8] and 3% in experiment [9].
In turn, monoclonal neutralizing antibody 2G12 returned an IC50 of HIV entry inhibition, pseudotype virus 92TH594 (R5/X4), U87-CD4+/CCR5+/CXCR4+ cells in experiment [1] of 1.3 µg/mL. In addition, the IC50 of HIV entry inhibition, pseudotype virus HXB2 (X4), U87-CD4+/CCR5+/CXCR4+ cells in experiment [2] worked out at 0.5 µg/mL. In addition, in [3], the IC50 of HIV entry inhibition, pseudotype virus JRCSF (R5), U87-CD4+/CCR5+/CXCR4+ cells is 0.8 µg/mL.
